Laboratory results from the supplement of paper PMC10899765.

These sequences were tested on MCF10A (assay: percent viability (nuclei count relative to siNT); higher = more viable cells). Conditions: 20 nM; 72 h.
Procedure: (§1)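 After 72 h, cells were fixed and stained with Hoechst and anti-fibrillarin, and nucleoli per nucleus were counted with CellProfiler. Values are plate-adjusted percent effect for the one-nucleolus and 5+ nucleoli phenotypes, normalised to siNT (0%) and to the positive controls siNOL11 or siKIF11 (100%), as the mean of biological triplicates. Percent viability is the nuclei count relative to siNT.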

First: CUGAAGUGAUGUGUAACUGAUCAG [hsa-miR-573]
Second: UAGAGUCUGGCUGAUAUGGUUU [hsa-miR-5007-5p]
The percent viability of the first is higher: 69% for the first, 49.3% for the second.

Going from “AAAAGUAAUUGCGGUUUUUGC [hsa-miR-548au-5p]” to UAUGUAACACGGUCCACUAACC [hsa-miR-411-3p], the percent viability falls from 100% to 76%.

First: UACCAUUAGAAGAGCUGGAAGA [hsa-miR-6512-5p]
Second: UGGGGAGCGGCCCCCGGGUGGG [hsa-miR-1343-5p]
The percent viability of the first is lower: 78.6% for the first, 86% for the second.

First: UUUGGCACUAGCACAUUUUUGCU [hsa-miR-96-5p]
Second: ACCAGGCAAGAAAUAUUGU [hsa-miR-4645-5p]
The percent viability of the first is lower: 28.4% for the first, 87.5% for the second.

Compared with CCUGAGACCCUAGUUCCAC [hsa-miR-4329], “UGUGGGUUCUGGGUUGGGGUGA [hsa-miR-6793-5p]” is lower in percent viability: 60.7% for the first, 14.3% for the second.

First: AGGGGGUAGAAAGUGGCUGAAG [hsa-miR-6835-5p]
Second: UGGUGGGUGGGGAGGAGAAGUGC [hsa-miR-6769b-5p]
The percent viability of the first is lower: 14.9% for the first, 18.8% for the second.

Going from AUCCCCAGAUACAAUGGACAA [hsa-miR-2355-5p] to UCAAAAUCAGGAGUCGGGGCUU [hsa-miR-8063], the percent viability rises from 68.5% to 81.3%.

Compared with AAGUGAUCUAAAGGCCUACAU [hsa-miR-1245a], “GCCCGAGAGGAUCCGUCCCUGC [hsa-miR-4740-3p]” is higher in percent viability: 48.6% for the first, 65.9% for the second.

First: GCUGGUGACAUGAGAGGC [hsa-miR-4299]
Second: CAUAAAGUAGAAAGCACUACU [hsa-miR-142-5p]
The percent viability of the first is lower: 42.6% for the first, 82.4% for the second.

Going from “UGAGUGGGGCUCCCGGGACGGCG [hsa-miR-4745-5p]” to “CACUGUAGGUGAUGGUGAGAGUGGGCA [hsa-miR-1183]”, the percent viability rises from 57.7% to 66.4%.

First: GACAAUUGUUGAUCUUGGGCCU [hsa-miR-7849-3p]
Second: UUUAGAUUGAACAUGAAGUUAG [hsa-miR-4760-5p]
The percent viability of the first is lower: 74.7% for the first, 83.5% for the second.

Going from “CCUCCGUGUUACCUGUCCUCUAG [hsa-miR-3605-3p]” to CUUGAGUCGUGCCUUUCUGAAUG [hsa-miR-8081], the percent viability rises from 92.7% to 95.5%.

First: UCUGAGAGAGCUCGAUGGCAG [hsa-miR-6761-5p]
Second: AAUCCACGCUGAGCUUGGCAUC [hsa-miR-5092]
The percent viability of the first is higher: 56.8% for the first, 22.3% for the second.

Compared with CUACAAAGGGAAGCACUUUCUC [hsa-miR-524-5p], CAAUGUGAUCUUUUGGAUGUA [hsa-miR-8066] is lower in percent viability: 41.4% for the first, 30.2% for the second.

Compared with AUCCUUGCUAUCUGGGUGCUA [hsa-miR-502-5p], AAUAAUAUCACAGUAGGUGUAC [hsa-miR-5692c] is higher in percent viability: 40.4% for the first, 133% for the second.

Going from “UGAGCACCACACAGGCCGGGCGC [hsa-miR-3663-3p]” to “CAUCUUACCGGACAGUGCUGGA [hsa-miR-200a-5p]”, the percent viability falls from 58.5% to 56%.

Going from UGCGGCAGAGCUGGGGUCA [hsa-miR-6820-5p] to “CAGUGCAAUGUUAAAAGGGCAU [hsa-miR-130a-3p]”, the percent viability rises from 16.9% to 120%.

Going from CCGCUCUUCCCCUGACCCCAG [hsa-miR-6812-3p] to “AGGGGGAUGGCAGAGCAAAAUU [hsa-miR-5010-5p]”, the percent viability falls from 163% to 44.2%.

Going from GCUGGGAUUACAGGCAUGAGCC [hsa-miR-619-5p] to “GGGUGGGGAUUUGUUGCAUUAC [hsa-miR-92a-2-5p]”, the percent viability falls from 50% to 42.2%.

Compared with “ACACACUUACCCGUAGAGAUUCUA [hsa-miR-216b-3p]”, UAUGUAACAUGGUCCACUAACU [hsa-miR-379-3p] is higher in percent viability: 59% for the first, 89.1% for the second.

First: CUUGCCAUCCUGGUCCACUGCAU [hsa-miR-4776-3p]
Second: CUGGCCUCUUCUUUCUCCUAG [hsa-miR-6878-3p]
The percent viability of the first is lower: 20.6% for the first, 45.7% for the second.

Compared with CUACAGGCUGGAAUGGGCUCA [hsa-miR-7151-3p], AGCAGGUGCGGGGCGGCG [hsa-miR-3665] is higher in percent viability: 20.6% for the first, 33% for the second.

Going from “AUUCUUCCUGCCCUGGCUCCAU [hsa-miR-6875-3p]” to “UUAGCCAAUUGUCCAUCUUUAG [hsa-miR-4662a-5p]”, the percent viability rises from 29.5% to 33.5%.

Compared with GCUGAUGAUGAUGGUGCUGAAG [hsa-miR-4502], GAAUGUUGCUCGGUGAACCCCU [hsa-miR-409-3p] is lower in percent viability: 85.3% for the first, 35.9% for the second.

First: UCCCCUUCUGCAGGCCUGCUGG [hsa-miR-3127-3p]
Second: AGGCGAUGUGGGGAUGUAGAGA [hsa-miR-6717-5p]
The percent viability of the first is higher: 144% for the first, 30.5% for the second.

First: GAUUUCAGUGGAGUGAAGUUC [hsa-miR-205-3p]
Second: UGCAACGAACCUGAGCCACUGA [hsa-miR-891a]
The percent viability of the first is higher: 133% for the first, 57.7% for the second.

First: UCUGUGGAGUGGGGUGCCUGU [hsa-miR-7114-5p]
Second: GAUUGAGACUAGUAGGGCUAGGC [hsa-miR-4461]
The percent viability of the first is lower: 16% for the first, 31.4% for the second.

Compared with UAGGGGCAGCAGAGGACCUGGG [hsa-miR-4688], GGGAUUCUGUAGCUUCCU [hsa-miR-4320] is higher in percent viability: 17.5% for the first, 28.6% for the second.

Going from “UUCCUGGGCUUCUCCUCUGUAG [hsa-miR-6783-3p]” to AAUGUUUUUUCCUGUUUCC [hsa-miR-4307], the percent viability falls from 88.9% to 63.9%.

For GUGUUGAAACAAUCUCUACUG [hsa-miR-653], the percent viability was 169%.

What follows are sequences tested on MCF10A (assay: 5+ nucleoli phenotype percent effect (relative to siNT 0% and siKIF11 100%); higher = more cells with five or more nucleoli). Conditions: 20 nM; 72 h.
Procedure: as §1

Going from CUGAAGUGAUGUGUAACUGAUCAG [hsa-miR-573] to “UAGAGUCUGGCUGAUAUGGUUU [hsa-miR-5007-5p]”, the “5+ nucleoli phenotype percent effect” value rises from -8.65% to -8%.

Compared with “AAAAGUAAUUGCGGUUUUUGC [hsa-miR-548au-5p]”, UAUGUAACACGGUCCACUAACC [hsa-miR-411-3p] is lower in “5+ nucleoli phenotype percent effect” value: 42.7% for the first, 22.1% for the second.

Compared with “UACCAUUAGAAGAGCUGGAAGA [hsa-miR-6512-5p]”, “UGGGGAGCGGCCCCCGGGUGGG [hsa-miR-1343-5p]” is higher in “5+ nucleoli phenotype percent effect” value: 11% for the first, 48.5% for the second.

Compared with UUUGGCACUAGCACAUUUUUGCU [hsa-miR-96-5p], ACCAGGCAAGAAAUAUUGU [hsa-miR-4645-5p] is lower in “5+ nucleoli phenotype percent effect” value: 16.6% for the first, 5.96% for the second.

First: CCUGAGACCCUAGUUCCAC [hsa-miR-4329]
Second: UGUGGGUUCUGGGUUGGGGUGA [hsa-miR-6793-5p]
The “5+ nucleoli phenotype percent effect” value of the first is higher: 1.67% for the first, -24.1% for the second.

First: AGGGGGUAGAAAGUGGCUGAAG [hsa-miR-6835-5p]
Second: UGGUGGGUGGGGAGGAGAAGUGC [hsa-miR-6769b-5p]
The “5+ nucleoli phenotype percent effect” value of the first is lower: -24.3% for the first, -22.4% for the second.

Compared with AUCCCCAGAUACAAUGGACAA [hsa-miR-2355-5p], UCAAAAUCAGGAGUCGGGGCUU [hsa-miR-8063] is higher in “5+ nucleoli phenotype percent effect” value: -14.8% for the first, 18.2% for the second.

Going from AAGUGAUCUAAAGGCCUACAU [hsa-miR-1245a] to “GCCCGAGAGGAUCCGUCCCUGC [hsa-miR-4740-3p]”, the “5+ nucleoli phenotype percent effect” value rises from -34% to 17.8%.

First: GCUGGUGACAUGAGAGGC [hsa-miR-4299]
Second: CAUAAAGUAGAAAGCACUACU [hsa-miR-142-5p]
The “5+ nucleoli phenotype percent effect” value of the first is higher: 34.1% for the first, 15% for the second.

First: UGAGUGGGGCUCCCGGGACGGCG [hsa-miR-4745-5p]
Second: CACUGUAGGUGAUGGUGAGAGUGGGCA [hsa-miR-1183]
The “5+ nucleoli phenotype percent effect” value of the first is higher: 25% for the first, 17.5% for the second.

Going from “GACAAUUGUUGAUCUUGGGCCU [hsa-miR-7849-3p]” to “UUUAGAUUGAACAUGAAGUUAG [hsa-miR-4760-5p]”, the “5+ nucleoli phenotype percent effect” value rises from -19.1% to 46.3%.

Compared with “CCUCCGUGUUACCUGUCCUCUAG [hsa-miR-3605-3p]”, CUUGAGUCGUGCCUUUCUGAAUG [hsa-miR-8081] is lower in “5+ nucleoli phenotype percent effect” value: -3.31% for the first, -17.9% for the second.

Going from UCUGAGAGAGCUCGAUGGCAG [hsa-miR-6761-5p] to AAUCCACGCUGAGCUUGGCAUC [hsa-miR-5092], the “5+ nucleoli phenotype percent effect” value falls from 9.71% to -4.16%.

Going from CUACAAAGGGAAGCACUUUCUC [hsa-miR-524-5p] to CAAUGUGAUCUUUUGGAUGUA [hsa-miR-8066], the “5+ nucleoli phenotype percent effect” value rises from -38.7% to -37.9%.

With AUCCUUGCUAUCUGGGUGCUA [hsa-miR-502-5p] the “5+ nucleoli phenotype percent effect” value was -11.6%.
